Reference: US20140220107A1

How the values were obtained:
[1] = molecular target: HIV-1 subtype C C06980v0c22 gp160 (HIV-1 subtype C isolate C06980v0c22); assay: gp160 antigen capture ELISA, 2F5 as capture antibody; cell lysate of transfected HEK293 cells, 48 h (negative control 0.150)
[2] = molecular target: HIV-1 subtype C C06838v1c48 gp160 DC (HIV-1 subtype C isolate C06838v1c48); assay: as above
[3] = molecular target: HIV-1 subtype C C3728v2c6 gp160 DC (HIV-1 subtype C isolate C3728v2c6); assay: as above
[4] = molecular target: HIV-1 subtype C C06980v1c3 gp160 (HIV-1 subtype C isolate C06980v1c3); assay: as above
[5] = molecular target: HIV-1 subtype C C06980v1c3 gp160 DC (HIV-1 subtype C isolate C06980v1c3); assay: as above
[6] = molecular target: HIV-1 subtype C C06838v1c48 gp160 (HIV-1 subtype C isolate C06838v1c48); assay: as above
[7] = molecular target: HIV-1 subtype C C3728v2c6 gp160 (HIV-1 subtype C isolate C3728v2c6); assay: as above
[8] = molecular target: HIV-1 Ba-L gp145 (HIV-1 Ba-L (subtype B)); assay: as above
[9] = molecular target: HIV-1 subtype C C06980v0c22 gp160 DC (HIV-1 subtype C isolate C06980v0c22); assay: as above
[10] = molecular target: HIV-1 subtype C C06980v0c22 gp160 (HIV-1 subtype C isolate C06980v0c22); assay: gp160 antigen capture ELISA, 2F5 as capture antibody; media of transfected HEK293 cells, 48 h (negative control 0.135)
[11] = molecular target: HIV-1 subtype C C06838v1c48 gp160 DC (HIV-1 subtype C isolate C06838v1c48); assay: as above
[12] = molecular target: HIV-1 subtype C C3728v2c6 gp160 DC (HIV-1 subtype C isolate C3728v2c6); assay: as above
[13] = molecular target: HIV-1 subtype C C06980v1c3 gp160 (HIV-1 subtype C isolate C06980v1c3); assay: as above
[14] = molecular target: HIV-1 subtype C C06980v1c3 gp160 DC (HIV-1 subtype C isolate C06980v1c3); assay: as above
[15] = molecular target: HIV-1 subtype C C06838v1c48 gp160 (HIV-1 subtype C isolate C06838v1c48); assay: as above
[16] = molecular target: HIV-1 subtype C C3728v2c6 gp160 (HIV-1 subtype C isolate C3728v2c6); assay: as above
[17] = molecular target: HIV-1 Ba-L gp145 (HIV-1 Ba-L (subtype B)); assay: as above
[18] = molecular target: HIV-1 subtype C C06980v0c22 gp160 DC (HIV-1 subtype C isolate C06980v0c22); assay: as above
[19] = molecular target: HIV-1 subtype C C06980v0c22 gp160 (HIV-1 subtype C isolate C06980v0c22); assay: gp160 antigen capture ELISA, 4E10 as capture antibody; media of transfected HEK293 cells, 48 h (negative control 0.123)
[20] = molecular target: HIV-1 subtype C C06838v1c48 gp160 DC (HIV-1 subtype C isolate C06838v1c48); assay: as above
[21] = molecular target: HIV-1 subtype C C3728v2c6 gp160 DC (HIV-1 subtype C isolate C3728v2c6); assay: as above
[22] = molecular target: HIV-1 subtype C C06980v1c3 gp160 (HIV-1 subtype C isolate C06980v1c3); assay: as above
[23] = molecular target: HIV-1 subtype C C06980v1c3 gp160 DC (HIV-1 subtype C isolate C06980v1c3); assay: as above
[24] = molecular target: HIV-1 subtype C C06838v1c48 gp160 (HIV-1 subtype C isolate C06838v1c48); assay: as above
[25] = molecular target: HIV-1 subtype C C3728v2c6 gp160 (HIV-1 subtype C isolate C3728v2c6); assay: as above
[26] = molecular target: HIV-1 Ba-L gp145 (HIV-1 Ba-L (subtype B)); assay: as above
[27] = molecular target: HIV-1 subtype C C06980v0c22 gp160 DC (HIV-1 subtype C isolate C06980v0c22); assay: as above
[28] = molecular target: HIV-1 subtype C C06980v0c22 gp160 (HIV-1 subtype C isolate C06980v0c22); assay: gp160 antigen capture ELISA, 4E10 as capture antibody; cell lysate of transfected HEK293 cells, 48 h (negative control 0.156)
[29] = molecular target: HIV-1 subtype C C06838v1c48 gp160 DC (HIV-1 subtype C isolate C06838v1c48); assay: as above
[30] = molecular target: HIV-1 subtype C C3728v2c6 gp160 DC (HIV-1 subtype C isolate C3728v2c6); assay: as above
[31] = molecular target: HIV-1 subtype C C06980v1c3 gp160 (HIV-1 subtype C isolate C06980v1c3); assay: as above
[32] = molecular target: HIV-1 subtype C C06980v1c3 gp160 DC (HIV-1 subtype C isolate C06980v1c3); assay: as above
[33] = molecular target: HIV-1 subtype C C06838v1c48 gp160 (HIV-1 subtype C isolate C06838v1c48); assay: as above
[34] = molecular target: HIV-1 subtype C C3728v2c6 gp160 (HIV-1 subtype C isolate C3728v2c6); assay: as above
[35] = molecular target: HIV-1 Ba-L gp145 (HIV-1 Ba-L (subtype B)); assay: as above
[36] = molecular target: HIV-1 subtype C C06980v0c22 gp160 DC (HIV-1 subtype C isolate C06980v0c22); assay: as above

2F5 human monoclonal antibody to the gp41 MPER
OD 450 nm [1]: 1.46 OD 450 nm | OD 450 nm [2]: 0.506 OD 450 nm | OD 450 nm [3]: 0.829 OD 450 nm | OD 450 nm [4]: 0.399 OD 450 nm | OD 450 nm [5]: 0.446 OD 450 nm | OD 450 nm [6]: 0.53 OD 450 nm | OD 450 nm [7]: 0.781 OD 450 nm | OD 450 nm [8]: 2.64 OD 450 nm | OD 450 nm [9]: 1.21 OD 450 nm | OD 450 nm [10]: 0.344 OD 450 nm | OD 450 nm [11]: 0.155 OD 450 nm | OD 450 nm [12]: 0.219 OD 450 nm | OD 450 nm [13]: 0.2 OD 450 nm | OD 450 nm [14]: 0.179 OD 450 nm | OD 450 nm [15]: 0.146 OD 450 nm | OD 450 nm [16]: 0.198 OD 450 nm | OD 450 nm [17]: 2.27 OD 450 nm | OD 450 nm [18]: 0.298 OD 450 nm

4E10 human monoclonal antibody to the gp41 MPER
OD 450 nm [19]: 2.53 OD 450 nm | OD 450 nm [20]: 0.162 OD 450 nm | OD 450 nm [21]: 0.681 OD 450 nm | OD 450 nm [22]: 0.926 OD 450 nm | OD 450 nm [23]: 1.1 OD 450 nm | OD 450 nm [24]: 0.146 OD 450 nm | OD 450 nm [25]: 0.589 OD 450 nm | OD 450 nm [26]: 2.42 OD 450 nm | OD 450 nm [27]: 2.61 OD 450 nm | OD 450 nm [28]: 2.74 OD 450 nm | OD 450 nm [29]: 2.7 OD 450 nm | OD 450 nm [30]: 2.65 OD 450 nm | OD 450 nm [31]: 2.72 OD 450 nm | OD 450 nm [32]: 2.59 OD 450 nm | OD 450 nm [33]: 2.65 OD 450 nm | OD 450 nm [34]: 2.78 OD 450 nm | OD 450 nm [35]: 2.55 OD 450 nm | OD 450 nm [36]: 2.62 OD 450 nm
